For this test, the target named is T1, CXADR protein on human prostate cancer cells (LNCaP-CR, DU-145) (human, UniProt P78310 20-365).
T1 construct: whole, on cells; Endogenous CXADR; also called coxsackievirus and adenovirus receptor; CAR
T1 sequence (looked up): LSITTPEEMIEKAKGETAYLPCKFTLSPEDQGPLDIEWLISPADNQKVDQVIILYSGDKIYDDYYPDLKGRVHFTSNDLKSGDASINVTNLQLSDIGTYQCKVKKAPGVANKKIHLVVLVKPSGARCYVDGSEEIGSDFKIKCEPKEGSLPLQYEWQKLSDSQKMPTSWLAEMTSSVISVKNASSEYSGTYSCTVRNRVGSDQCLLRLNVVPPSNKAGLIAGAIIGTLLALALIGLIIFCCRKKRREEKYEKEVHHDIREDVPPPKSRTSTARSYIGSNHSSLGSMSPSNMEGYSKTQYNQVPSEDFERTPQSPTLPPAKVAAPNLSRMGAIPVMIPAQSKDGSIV
Nature of the test: flow cytometry, purified antibody at 5 ug/mL on LNCaP-CR and DU-145 cells that express CXADR.

B1: anti-CXADR antibody 7F8A (antibody, V domains shown)
VH: DVQLQESGPGLVKPSQTVSLTCTVTGYSITNGNHWWNWIRQVSGSKLEWIGYINSSGSTDSNPSLKSRISITRDTSKNQLFLQLNSVTIEDIATYYCARDDYYFDYWGQGTTLTVSS
VL: DIQMTQSPASLSASVGETVTITCRASENIDSYLAWYQQKQGKSPQLLVYAATLLADGVPSRFSGSGSGTQYSLKINSLQSEDVARYYCQHYYSTPLTFGAGTKLELKR
notes: also called 7F8A clone
With B1, the binding result is on record as “binds”.

The record behind these values is US20150140018A1 (MEDICAL AND BIOLOGICAL LABORATORIES, published 2015).
